Laboratory results from PMC4619592.

Legend:
[1] = biological target: Grouper nervous necrosis virus capsid protein, full length (338 residues) (orange-spotted grouper nervous necrosis virus (OSGNNV)); assay: SDS-PAGE; oligomerization of three CPs in solution, bands compared to protein standards
[2] = biological target: Truncated P-domain of GNNV capsid protein (residues 214-338) (orange-spotted grouper nervous necrosis virus (OSGNNV)); assay: SEC; purified P-domain on Superdex 75 10/300 GL in the presence of Ca2+, against protein standards
[3] = biological target: Truncated P-domain of GNNV capsid protein (residues 214-338) (orange-spotted grouper nervous necrosis virus (OSGNNV)); assay: crystal structure; truncated P-domain (214-338), 1.2 Å; crystals from 0.2 M Ca acetate, 0.1 M MES (pH 6.5), 10% PEG8000
[4] = biological target: N-ARM deletion mutant of GNNV capsid protein (residues 35-338) (orange-spotted grouper nervous necrosis virus (OSGNNV)); assay: SDS-PAGE; oligomerization of three CPs in solution, bands compared to protein standards
[5] = biological target: delta-P-domain mutant of GNNV capsid protein (residues 35-217) (orange-spotted grouper nervous necrosis virus (OSGNNV)); assay: as above
[6] = biological target: delta-P-domain mutant of GNNV capsid protein (residues 35-217) (orange-spotted grouper nervous necrosis virus (OSGNNV)); assay: crystal structure; T = 1 delta-P-domain mutant (35-217), 3.1 Å; crystals from 0.2 M MgCl2, 0.1 M HEPES-Na (pH 7.5), 30% PEG400

In the case of “Grouper nervous necrosis virus capsid protein, full length (338 residues) (natural protein)”, the stoichiometry N [1] is reported as 3.

For “Truncated P-domain of GNNV capsid protein (residues 214-338) (domain or fragment)”, the stoichiometry N [2] was 3 and the stoichiometry N [3] was 3.

Work on “N-ARM deletion mutant of GNNV capsid protein (residues 35-338) (domain or fragment)” yielded a stoichiometry N [4] of 3.

Substance “delta-P-domain mutant of GNNV capsid protein (residues 35-217) (domain or fragment)” has a stoichiometry N [5] of 2 and a stoichiometry N [6] of 60.
